Binding result and OD450-blank data for 1 molecule are collected here from patent CN112125972A (SINOCELLTECH LTD, dated 2020).

One assay has as its target T1, HPV6 VLP (Human papillomavirus type 6, UniProt P69899 1-500).
T1 construct: also called HPV6完整VLP蛋白
T1 sequence: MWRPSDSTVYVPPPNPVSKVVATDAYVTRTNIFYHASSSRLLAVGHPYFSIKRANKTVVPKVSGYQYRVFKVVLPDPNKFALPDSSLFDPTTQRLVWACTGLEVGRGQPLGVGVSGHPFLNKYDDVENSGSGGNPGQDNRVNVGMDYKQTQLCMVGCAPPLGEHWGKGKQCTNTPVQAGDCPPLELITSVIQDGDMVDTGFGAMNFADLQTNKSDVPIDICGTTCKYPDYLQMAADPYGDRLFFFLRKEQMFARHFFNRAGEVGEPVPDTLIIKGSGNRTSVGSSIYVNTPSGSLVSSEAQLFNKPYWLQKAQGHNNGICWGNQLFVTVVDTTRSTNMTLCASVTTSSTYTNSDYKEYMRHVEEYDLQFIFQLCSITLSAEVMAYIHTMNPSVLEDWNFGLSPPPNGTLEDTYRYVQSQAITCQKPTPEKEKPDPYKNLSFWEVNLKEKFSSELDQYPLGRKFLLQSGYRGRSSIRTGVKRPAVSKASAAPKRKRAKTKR
Kind of assay: indirect ELISA, VLP coated at 2 μg/mL. On the technique in general: An ELISA detects its analyte on a solid surface through an enzyme-linked reagent.

A further assay deals with T2, HPV52 VLP (Human papillomavirus type 52, UniProt Q05138 27-529).
T2 construct: also called HPV52完整VLP蛋白
T2 sequence: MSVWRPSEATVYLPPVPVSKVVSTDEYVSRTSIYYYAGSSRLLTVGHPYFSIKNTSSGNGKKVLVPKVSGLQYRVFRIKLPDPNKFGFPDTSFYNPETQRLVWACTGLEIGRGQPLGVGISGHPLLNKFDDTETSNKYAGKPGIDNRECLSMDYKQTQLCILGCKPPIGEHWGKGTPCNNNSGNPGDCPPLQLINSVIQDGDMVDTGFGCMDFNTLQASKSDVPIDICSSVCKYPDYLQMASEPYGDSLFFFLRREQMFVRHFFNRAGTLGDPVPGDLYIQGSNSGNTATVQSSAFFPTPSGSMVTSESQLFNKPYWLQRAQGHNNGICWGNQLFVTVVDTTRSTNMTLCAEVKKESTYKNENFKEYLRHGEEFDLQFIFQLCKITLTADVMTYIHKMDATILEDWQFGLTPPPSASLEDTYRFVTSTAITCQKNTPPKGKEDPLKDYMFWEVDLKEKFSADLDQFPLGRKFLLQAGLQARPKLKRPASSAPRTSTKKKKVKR
Kind of assay: indirect ELISA, VLP coated at 2 μg/mL.

Assay [1] deals with T3, HPV56 VLP (Human papillomavirus type 56, UniProt P36743 36-534).
T3 construct: also called HPV56完整VLP蛋白
T3 sequence: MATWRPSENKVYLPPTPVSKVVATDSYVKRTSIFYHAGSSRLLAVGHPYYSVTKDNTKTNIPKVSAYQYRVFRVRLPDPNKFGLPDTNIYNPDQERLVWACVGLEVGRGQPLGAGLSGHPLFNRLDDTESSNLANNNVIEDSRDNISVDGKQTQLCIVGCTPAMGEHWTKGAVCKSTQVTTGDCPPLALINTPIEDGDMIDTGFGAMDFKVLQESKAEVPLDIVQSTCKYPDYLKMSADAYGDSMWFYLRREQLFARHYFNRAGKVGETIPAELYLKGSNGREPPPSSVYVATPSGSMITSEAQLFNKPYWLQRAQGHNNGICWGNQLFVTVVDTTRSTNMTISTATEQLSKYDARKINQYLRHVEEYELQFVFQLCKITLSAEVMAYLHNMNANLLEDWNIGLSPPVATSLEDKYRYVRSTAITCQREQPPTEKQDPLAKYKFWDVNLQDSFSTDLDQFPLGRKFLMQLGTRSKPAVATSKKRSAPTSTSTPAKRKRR
Kind of assay: indirect ELISA, VLP coated at 2 μg/mL.

A further assay deals with T4, HPV58 VLP (Human papillomavirus type 58, UniProt P26535 27-524).
T4 construct: also called HPV58完整VLP蛋白
T4 sequence: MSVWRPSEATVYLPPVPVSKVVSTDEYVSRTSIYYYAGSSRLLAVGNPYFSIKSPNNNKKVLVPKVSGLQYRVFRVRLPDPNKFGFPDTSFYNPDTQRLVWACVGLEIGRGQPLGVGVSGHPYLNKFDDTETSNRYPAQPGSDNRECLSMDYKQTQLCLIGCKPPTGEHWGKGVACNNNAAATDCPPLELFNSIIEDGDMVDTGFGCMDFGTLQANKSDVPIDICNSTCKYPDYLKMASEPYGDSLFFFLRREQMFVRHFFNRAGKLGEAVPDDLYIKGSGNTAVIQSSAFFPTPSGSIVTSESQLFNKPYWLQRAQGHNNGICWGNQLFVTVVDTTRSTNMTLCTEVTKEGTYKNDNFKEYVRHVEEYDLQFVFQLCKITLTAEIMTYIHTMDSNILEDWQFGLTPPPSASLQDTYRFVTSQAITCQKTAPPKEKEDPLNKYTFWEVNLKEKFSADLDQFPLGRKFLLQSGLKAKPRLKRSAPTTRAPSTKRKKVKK
Nature of the assay: indirect ELISA, VLP coated at 2 μg/mL.

The target of the next assay is T5, HPV51 VLP (Human papillomavirus type 51, UniProt P26536 1-504).
T5 construct: also called HPV51完整VLP蛋白
T5 sequence: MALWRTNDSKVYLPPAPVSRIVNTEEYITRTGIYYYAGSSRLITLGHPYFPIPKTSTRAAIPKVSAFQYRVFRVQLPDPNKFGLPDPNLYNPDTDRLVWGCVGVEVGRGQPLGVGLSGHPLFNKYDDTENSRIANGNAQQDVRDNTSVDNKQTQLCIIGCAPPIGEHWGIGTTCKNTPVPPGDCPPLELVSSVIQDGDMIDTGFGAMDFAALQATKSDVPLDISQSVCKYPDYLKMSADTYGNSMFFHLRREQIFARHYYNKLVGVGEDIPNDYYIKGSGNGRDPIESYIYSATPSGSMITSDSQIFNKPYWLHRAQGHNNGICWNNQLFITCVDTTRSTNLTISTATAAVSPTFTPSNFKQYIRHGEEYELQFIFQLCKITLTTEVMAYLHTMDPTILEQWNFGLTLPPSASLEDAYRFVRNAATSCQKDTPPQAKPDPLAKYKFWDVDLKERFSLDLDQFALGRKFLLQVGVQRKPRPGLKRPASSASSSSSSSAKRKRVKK
Kind of assay: indirect ELISA, VLP coated at 2 μg/mL, antibody at 10 ng/mL.

In assay [2] the target is T3, HPV56 VLP. The description is as above.
In a further assay the target is T6, HPV16 L1 VLP蛋白 (Human papillomavirus type 16).
T6 construct: Intact virus-like particle of L1; also called HPV16 VLP; HPV16 VLP蛋白
The description is as above.

B1: HPV 16 R001 (antibody, V domains shown)
VH: QSVKESEGRLVTPGTPLTLTCTASGFTMSRYHMTWVRQAPGKGLEWIGIIYARNSDTYYANWAKGRFTISKTSTTVDLKITSPTIEDTATYFCARVDSDSSGAFDRLDLWGQGTLVTVSS
VL: DPMLTQTAASVEVAVGGTVTIKCQASQSIGGYLSWYQQKPGQRPKLLIYRASTLASGVPSRFKGSGSGTEYTLTFSGVECADAAAYYCQQGYTSSDINNAFGGGTEVVVK
notes: An HRP-labelled form served as detection antibody in the sandwich ELISA; also called HPV16.001; 单克隆抗体HPV 16 R001
Regarding B1, the binding result with HPV6 VLP, with HPV52 VLP, with HPV56 VLP [1] and with HPV58 VLP was “no binding (tested: 10ng/mL)” throughout. For the same molecule, the OD450-blank stood at 0.001 OD450 in the assay with HPV51 VLP, 0.003 OD450 with HPV56 VLP [2] and 2.53 OD450 in the assay with HPV16 L1 VLP蛋白.
